Consider 30 sequences from the nanobody polyreactivity screen of Harvey et al. (2022).

The series in a line: yeast display, Sf9 membrane polyspecificity reagent, FACS + sequencing; frameworks hold sequencing errors. The essentials:
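Nanobodies from a synthetic yeast display library (Saccharomyces cerevisiae BJ5465), induced 36–48 hours with galactose, were stained 1 hour at 4 °C with 10% biotinylated, detergent-solubilized Sf9 membrane reagent, enriched on streptavidin microbeads, then FACS-sorted. Anti-HA (expression) and streptavidin (reagent binding) fluorescence set low and high (top ~1%) gates. Polyreactivity labels come from the gate of origin. Genes were colony-PCR amplified, MiSeq 2 × 250 sequenced and filtered by CDR length.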
For “QVQLEDSGGGLVQAGGSLRLSCAASGLTFYGYTMGWYRQAPGKERELVAAISWSGGNTYYADSVKGRFTISRDNAKNTVYLQMNSLKPEDTAVYYCAAEHWTYDWVDYWGQGTQVTVSS”, the “polyreactivity (PSR sort gate)” value was “low polyreactivity”.

For the sequence “QVQLVESGGGLVQAGGSLRLSCAASGSIFGRNAMGGYRQAPGSERELVARISSRGGSTYYADSVKGRFTISRDNAKNTVDLQMNSLKPEDTAVYYCNRDRTSQTNDYWGQGTQVTVSS”, the “polyreactivity (PSR sort gate)” value was “high polyreactivity”.

Consider “QVQLVESGGGLVQAGGSLRLSCAASGLTFSLYAMGWYRQAPGKERELVAAISSSGSTYYADSVKGRFTISRDNAKNTVYLQMNSLKPEDTAVYYCAADAPWWIDPIAGNYWGQGTQVTVSS”, for which the “polyreactivity (PSR sort gate)” value is recorded as “high polyreactivity”.

On to “QVQLVESGGGLVQAGGSLRLSCAASGSTFYVYAMGWYRQAPGKERELVAAIDSGDSTNYADSVKGRFTISRDNAKNTVYLQMNSLNPEDTAVYYCAVGYWDSRYRYDWPNSDYWGQGTQVTVSS”, for which the “polyreactivity (PSR sort gate)” value was “low polyreactivity”.

Turning to “QVQLVESGGGLVQAGGSLRLSCAASGSIFEPNAMGWYRQAPGKERELVAAISWNDGDTYYADSVKGRFTISRDNAKNTVYLQMNSLKPVDTAVYYCAAETGYAFDYWGQGTQVTVSS”, the “polyreactivity (PSR sort gate)” value was “low polyreactivity”.

Take “QVQLVESGGGLVQAGGSLRLSCAASGRTFFLNTMGWYRQAPGKERELGAAINWSDGGTYYADSVKGRFTISRDIAKNTVYLQMNSLKPEDTAVYYCAADVYWYYGAPELWYRFDYWGQGTQVTVSS”: the “polyreactivity (PSR sort gate)” value was “low polyreactivity”.

Turning to “QVQLVESGGGLVQAGGSLRLSCAASGNTFDVYAMGWYRQAPGKEREFVARISGRVGSTYYADSVKGRFTISRDNAKYTVYLQMNSLKPEDTAVYYCNRRYQSRNMGYWGQGTQVTVSS”, the “polyreactivity (PSR sort gate)” value is reported as “high polyreactivity”.

Consider “QVQLVESGGGLVQAGGSLRLSCAASGCIFWKDAMGWYRQAPGKERELVAAITSGGGTYYADSVKGLFTISRDNAKNTVYLQMNSLKPEDTAVYYCAARSLSVARRRPYYYWGQGTQVTVSS”, for which the “polyreactivity (PSR sort gate)” value is recorded as “high polyreactivity”.

As for “QVQLVESGGGLVQAGGSLRLSCDASGNILPSNAMGWYRQAPGKERELVAAITWSVGRTYYADSVKGRFTISRDNAKNTVYLQMNSLKPEDTAVYYCNAQDTPYEGRYDESEYDYWGQGTQVTVSS”, the “polyreactivity (PSR sort gate)” value is recorded as “low polyreactivity”.

For the sequence “QVQLVESGGGLVQAGGSLRLSSAASGLTFALYAMGWYRQAPGKERELVATISRGASTNYADSVKGRFTISRDNTKNTVYLQMNSLKPEDTAVYYWAVALRSTPRTREVRPSPRVYYWGQGTQVTVSS”, the “polyreactivity (PSR sort gate)” value is listed as “high polyreactivity”.

Take “QVQLVESGGGLVQAGGSLRLSCAASGSIFPRYAMGWYRQAPGKERELVATISQSGGSTYYADSVKGRFTISRDSAKNTVYLQMNSLKPEDTAVYYCAAKVYRSAYYVGKYYPYYYWGQGTQVTVSS”: the “polyreactivity (PSR sort gate)” value is recorded as “high polyreactivity”.

With “QVQLVESGGGLVQAGGSLRLSCAASGFTFTPNAMGWYRQAPGKERELVAAITWNGGTTYYADSVKGRFTISRDNAKNTVYLQMNSLKPEDTAVYYCNADGLILYDYWGQGTQVTVSS”, the “polyreactivity (PSR sort gate)” value is on record as “low polyreactivity”.

Take “QVQLVESGGGLVQAGGSLRLSCAASGSTFNWNAMGWYRPAPGKERELVAAISRSGGRTSYADSVKGRFTISRDNAKNTVYLQMNSLKPEDTAVYYCAAEKVGTRPSRDYDYWGQGTQVTVSS”: the “polyreactivity (PSR sort gate)” value is on record as “high polyreactivity”.

Consider “QVQLVESGGGLVQAGGSLRLSCAASGIIFYWNAMGWYRQAPGKERELVAGITRGGSTYYADSVKGRFTISRDNATNTVYLLMNSLKPEDTAVYYCAKRQASRRVSYSRYDYWGQGTQVTVSS”, for which the “polyreactivity (PSR sort gate)” value was “high polyreactivity”.

Regarding “QVQLVESGGGLVQAGGSLRLSCAASGSIFPYYAMGWYRPAPGKERELVAVISRGGGRTYYADSVKGRFTISRDNAKITVYLQMNSLKPEDTAVYYCYAGYPYGGDYWGQGTQVTVSS”, the “polyreactivity (PSR sort gate)” value was “high polyreactivity”.

In the case of “QVQLVESGGGLVQAGGSLRLSCAASGSIFKYYAMGGYRQAPGTERELVAAITQRGGSTYYADSVKGRFTISRDNAKNTGYLQMNRLNPEDTAVYYCNRYSLTAWYYRHGYYYWGQGTQVTVSS”, the “polyreactivity (PSR sort gate)” value is “high polyreactivity”.

For “QVQLVESGGGLVQAGGSLRLSCAASGSIFRKNAMGWYREAPGKERELVATISGGGSTTYADSVKGRFTISRDNAKNTLYLQMNSLKPEDTAVYYCAARSTWFQIRYGYWGQGNQVTVSS”, the “polyreactivity (PSR sort gate)” value is “high polyreactivity”.

With “QVQLVESGGGLVQAGGSLRLTCAASGSTFSYYAMGCYRQAPGKERELVAAISTRGSSTYYADSVKGRFTISRDNAKITVYVQMNSLKPEDTAVYYFAVDQYKYDCFYDYYGYTYGYWGQGTQVTVSS”, the “polyreactivity (PSR sort gate)” value is on record as “high polyreactivity”.

With “QVQLVESGGGLVQAGGSLRLSSAASGSTFDYYAMGWYRQAPGKERELVAAISTSGSSTYYADSVKGRFTISGDNAKNTVYLQMNSLKPEDTAVYYCAAPIRYKGGYWGQGTQVTVSS”, the “polyreactivity (PSR sort gate)” value is “low polyreactivity”.

“QVQLVESGGGLVQPGGSLRLSCAASGRTFTGYTMGWYRQAPGKERELVAAIRWSGDRTYYADSVKGRFTISRDNAKNTVYLQMNSLKPEDTAVYYCAAARYVYGKFVGFDYWGQGTQVNVSS”: the “polyreactivity (PSR sort gate)” value is on record as “high polyreactivity”.

On to “QVHLVESGGGLVQAGGSLRLSCAASGRIFDGYDMGWYRQAPGKERELVAAITSVGSTNYADSVKGRFTISRDNAKNTVYLQMNSLKPEDTAVYYCAAVLYVFDDEYGYLEYFSQYDYWGQGSQVTVSS”, for which the “polyreactivity (PSR sort gate)” value was “low polyreactivity”.

Take “QVQLVESGGGLVQAGCSLRLSCAASGSIFGYNDMGWNRQAPGKERELVATITWGGGRTRYADSVKGRFTISRDNAKNTVYLQINCLKPEDIAVYYCAADKRSYSYVRPPRNHEDYWGQGSQVTVSS”: the “polyreactivity (PSR sort gate)” value was “low polyreactivity”.

In the case of “QVQLVESGGGLVQAGGSLRLSCAGSGSTFVYNAMGWYRQAPGKERELVAAITAAGGRTYYADSVKGRFTISRDTAKNTVYLQMNSLKPEDTAVYYCYTVRPHGMDYWGQGTQVTVSS”, the “polyreactivity (PSR sort gate)” value is reported as “high polyreactivity”.

Turning to “QVQLVESGGGLVQAGGSLRLSCAASGFTLWLYAMGWSRQAPGKERALVATISYRGDSTYYADSVKGRFTISRDNAKNTVYLQMNSLNPEDTAVYYCARRYTHTGRYYYWGQGTQVTVSS”, the “polyreactivity (PSR sort gate)” value is on record as “high polyreactivity”.

Regarding “QVQLVESGGGLVQAGGSLRLSCAASGFTFVRYAMGWYRQAPGKEREFVASISARGGNTFYADSVKGRFTISRDNAKNTVYLQMNSLKPEDTAVYYCAKRGPYGTGYGYWGQGTQVTVSS”, the “polyreactivity (PSR sort gate)” value is on record as “high polyreactivity”.

Regarding “QVQLVESGGGLVQAGGSLRLSCAASGRTLSANAMGWYRQAPGKERELVATISTRGGRTYYADSVKGRFTISRDNAKNTVYLQMNSLKPEDTAVYYCARLPPGDMDYWGQGTQVTVSS”, the “polyreactivity (PSR sort gate)” value is “low polyreactivity”.

For the sequence “QVQVVESGGGIVQAGGSLGLSCAASGSNFSYNAMGWYRQAPRKERELVATISNTDSTNYADSVKGRFTISRDNAKNTVYLQMNSLKPEDTAVYYCAVVSARIDYEYWGQGTQVTVSS”, the “polyreactivity (PSR sort gate)” value is “low polyreactivity”.

Take “QVQLVESGGGLVQAGGSLRLSCAASGIIFDINAMGWYRQAPGKERELVAAITTSVDSTYYADSVKGRFTISRDNAKNTVYLQMNSLKPEDTAVYYCAVAFVQFTQYDYWGQGTQVTVSS”: the “polyreactivity (PSR sort gate)” value is on record as “low polyreactivity”.

As to “QVQLVESGGGLVQAGGSLRLSCAASGRTFTFNAMGWYRQAPGKERELVARIDWRGITYADSVKGRFTISRDNAKNTVYLQMNSLKPEDTAVYYCAAVWLHIRGFFFQYDYWGQGTQVTVSS”, the “polyreactivity (PSR sort gate)” value is listed as “low polyreactivity”.

Take “QVQLVESGGGLVQAGGSLRLSCAASGSTYATNAMRWYRQAPGKERELVATISWSGGSTYYADSVKGRFTISRDNAKNTVYLQMNSLKPEDTAVYYCAADWSNLGAYDYWGQGTQVTVSS”: the “polyreactivity (PSR sort gate)” value is “low polyreactivity”.
